# Data: paper PMC4087167 (Cell, 2014)
# B1: GRLBD(F602S) (domain or fragment, UniProt P04150 521-777, looked up)
# chain: VPATLPQLTPTLVSLLEVIEPEVLYAGYDSSVPDSTWRIMTTLNMLGGRQVIAAVKWAKAIPGFRNLHLDDQMTLLQYSWMSLMAFALGWRSYRQSSANLLCFAPDLIINEQRMTLPCMYDQCKHMLYVSSELHRLQVSYEEYLCMKTLLLLSSVPKDGLKSQELFDEIRMTYIKELGKAIVKREGNSSQNWQRFYQLTKLLDSMHEVVENLLNYCFQTFLDKTMSIEFPEMLAEIITNQIPKYSNGNIKKLLFHQK
# Key:
# Human Hsp90α [1] = molecular target: T1, Human Hsp90α (human, UniProt P07900 1-732); experiment: pull-down
# GRLBD(F602S) = molecular target: B1; experiment: pull-down
# Hsp90(E47A) = Hsp90(E47A) (human, UniProt P07900 1-732, E47A); experiment: pull-down
# Hsp90(D93N) = Hsp90(D93N) (human, UniProt P07900 1-732, D93N); experiment: pull-down
# Human HOP = Human HOP (human, UniProt P31948 1-543); experiment: pull-down
# Human Hsp90α [2] = molecular target: T1, Human Hsp90α; experiment: cryo-EM structure
binding result (Human Hsp90α [1]),binding result (GRLBD(F602S)),binding result (Hsp90(E47A)),binding result (Hsp90(D93N)),binding result (Human HOP),binding result (Human Hsp90α [2]),Binder
binds,binds,,,,,"Human p23 (natural protein, UniProt Q15185 1-160, looked up) MQPASAKWYDRRDYVFIEFCVEDSKDVNVNFEKSKLTFSCLGGSDNFKHLNEIDLFHCIDPNDSKHKRTDRSILCCLRKGESGQSWPRLTKERAKLNWLSVDFNNWKDWEDDSDEDMSNFDRFSEMMNNMGGDEDVDLPEVDGADDDSQDSDDEKMPDLE"
binds,,binds,binds,binds,,B1
,,,,,binds,"MBP-GRLBD(F602S) (domain or fragment, UniProt P04150 521-777, looked up) VPATLPQLTPTLVSLLEVIEPEVLYAGYDSSVPDSTWRIMTTLNMLGGRQVIAAVKWAKAIPGFRNLHLDDQMTLLQYSWMSLMAFALGWRSYRQSSANLLCFAPDLIINEQRMTLPCMYDQCKHMLYVSSELHRLQVSYEEYLCMKTLLLLSSVPKDGLKSQELFDEIRMTYIKELGKAIVKREGNSSQNWQRFYQLTKLLDSMHEVVENLLNYCFQTFLDKTMSIEFPEMLAEIITNQIPKYSNGNIKKLLFHQK"
